From patent publication US5786169 come the findings set out here.

Experiment in all cases: yeast interaction trap (two-hybrid), LexAop-lacZ reporter pJK103 in EGY48, galactose medium
The target of experiment [1] is LexA-Cdc2 (Dm) bait protein (Drosophila) (UniProt P23572).
Experiment [2] concerns the target LexA-Cdc2 (Hs) bait protein (human) (UniProt P06493).
The target in experiment [3] is LexA-Cdc28 (Sc) bait protein (S. cerevisiae) (UniProt P00546).
The target of experiment [4] is LexA-Cdc2c (Dm) bait protein (Drosophila) (UniProt P23573).
The target of experiment [5] is LexA-Cdk2 (Hs) bait protein (human) (UniProt P24941).
Experiment [6] has as its target LexA-Fus3 (Sc) bait protein (S. cerevisiae) (UniProt P16892).

Bounds are passed on as bounds.

With “tagged Cdi1 (activation-tagged prey fusion expressed from library plasmid pJG4-5)”, the β-Galactosidase Activity (β-galactosidase units) was 40 in experiment [1]; 1580 in experiment [2]; 480 in experiment [3]; over 2 in experiment [4]; 440 in experiment [5]; over 2 in experiment [6].
